Percent of espin cosedimented with F-actin data for two substances are collected here from paper PMC6232856.

This experiment addresses rabbit skeletal muscle actin, polymerised (F-actin) (rabbit) (UniProt P68135). Nature of the experiment: co-sedimentation.

Chain of human espin 3A with the USH1M variant p.790_795delRRDLLR, N-terminally 6xHis-tagged (natural protein) (B1AK53 whole entry, stated change not applied): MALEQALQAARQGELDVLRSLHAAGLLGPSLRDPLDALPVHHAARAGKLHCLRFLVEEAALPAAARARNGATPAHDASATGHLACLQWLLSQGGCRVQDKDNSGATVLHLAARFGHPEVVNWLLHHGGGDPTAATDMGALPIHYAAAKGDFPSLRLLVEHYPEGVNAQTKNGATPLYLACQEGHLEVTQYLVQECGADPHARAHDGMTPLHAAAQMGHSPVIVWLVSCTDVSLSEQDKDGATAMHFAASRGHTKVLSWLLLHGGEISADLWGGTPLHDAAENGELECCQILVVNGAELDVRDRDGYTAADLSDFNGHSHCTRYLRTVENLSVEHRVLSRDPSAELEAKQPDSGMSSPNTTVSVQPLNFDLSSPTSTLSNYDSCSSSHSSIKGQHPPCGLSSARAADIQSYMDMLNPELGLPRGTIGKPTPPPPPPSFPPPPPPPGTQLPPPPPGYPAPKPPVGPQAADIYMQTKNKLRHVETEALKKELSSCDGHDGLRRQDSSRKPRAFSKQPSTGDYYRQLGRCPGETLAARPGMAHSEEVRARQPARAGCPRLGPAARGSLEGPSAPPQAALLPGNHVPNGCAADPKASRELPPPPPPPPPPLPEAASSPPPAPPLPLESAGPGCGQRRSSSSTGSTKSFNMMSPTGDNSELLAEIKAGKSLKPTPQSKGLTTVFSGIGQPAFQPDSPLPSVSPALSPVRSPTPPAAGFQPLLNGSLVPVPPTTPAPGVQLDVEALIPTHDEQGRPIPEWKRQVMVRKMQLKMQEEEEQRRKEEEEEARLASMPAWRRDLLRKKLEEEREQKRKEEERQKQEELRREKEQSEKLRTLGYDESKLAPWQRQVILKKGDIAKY

Regarding “human espin 3A, wild type, N-terminally 6xHis-tagged (natural protein)”, the percent of espin cosedimented with F-actin stood at 45%. The value for “human espin 3A with the USH1M variant p.790_795delRRDLLR, N-terminally 6xHis-tagged (natural protein)” was 15%.
